Targets include DLG4_2, P78352; DLG1_3, Q12959; ARHGEF12, Q9NZN5-2; TJP2_1, Q9UDY2; DLG5_1, Q8TDM6; TJP1_2, Q07157; GRIP2_5, Q9C0E4; GIPC2, Q8TF65; LNX1_1, Q8TBB1.
Assay in all cases: holdup assay
Holding throughout (set-up): key: below the threshold = too weak to quantify, mostly under pKd 3.1 to 4

The target of another assay is FRMPD2_3, Q68DX3. Particulars: plain residues with an end cap or a label only (N-terminal biotin on a linker: ttds).
A further assay has as its target T1, SNTB1, Q13884.
T1 sequence (Q13884 107-205, limits assumed, looked up): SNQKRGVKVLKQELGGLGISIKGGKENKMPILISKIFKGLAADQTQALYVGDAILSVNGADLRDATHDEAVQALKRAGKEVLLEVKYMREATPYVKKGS

The target of the next assay is T2, GRIP1_4, Q9Y3R0.
T2 sequence (Q9Y3R0 467-571, limits assumed, looked up): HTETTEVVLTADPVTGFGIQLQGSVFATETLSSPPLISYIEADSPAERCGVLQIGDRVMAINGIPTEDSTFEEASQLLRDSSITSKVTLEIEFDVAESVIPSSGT

Another assay has as its target GORASP1, Q9BQQ3. Particulars: plain residues with an end cap or a label only (N-terminal biotin on a linker: ttds).
The target of the next assay is GRIP2_7, Q9C0E4. Particulars: plain residues with an end cap or a label only (N-terminal biotin on a linker: ttds).
Sequence of GRIP2_7, Q9C0E4 (Q9C0E4 934-1023): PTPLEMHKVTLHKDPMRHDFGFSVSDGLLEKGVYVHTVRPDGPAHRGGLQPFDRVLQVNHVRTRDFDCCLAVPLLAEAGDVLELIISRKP
The next assay has as its target T3, MPP6, Q9NZW5.
T3 sequence (Q9NZW5 125-219, limits assumed, looked up): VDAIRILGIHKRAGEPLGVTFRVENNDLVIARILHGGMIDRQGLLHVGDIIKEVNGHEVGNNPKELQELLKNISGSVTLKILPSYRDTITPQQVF
Particulars: plain residues with an end cap or a label only (N-terminal biotin on a linker: ttds).

Another assay has as its target MAGI2_6, Q86UL8. Particulars: plain residues with an end cap or a label only (N-terminal biotin on a linker: ttds).
In another assay the target is T4, NHERF3_4, Q5T2W1.
T4 sequence (Q5T2W1 373-468, limits assumed, looked up): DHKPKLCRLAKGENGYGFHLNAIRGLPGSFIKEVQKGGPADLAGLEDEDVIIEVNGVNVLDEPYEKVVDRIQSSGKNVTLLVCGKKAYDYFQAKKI

For a further assay, the target named is T5, APBA2_2, Q99767.
T5 sequence (Q99767 654-744, limits assumed, looked up): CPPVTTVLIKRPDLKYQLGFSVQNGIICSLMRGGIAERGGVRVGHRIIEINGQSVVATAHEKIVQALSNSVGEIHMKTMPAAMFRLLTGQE
Particulars: plain residues with an end cap or a label only (N-terminal biotin on a linker: ttds).

The next assay deals with Inadl_9, Q8NI35. Particulars: plain residues with an end cap or a label only (N-terminal biotin on a linker: ttds).
Sequence of Inadl_9, Q8NI35 (Q8NI35 1530-1615): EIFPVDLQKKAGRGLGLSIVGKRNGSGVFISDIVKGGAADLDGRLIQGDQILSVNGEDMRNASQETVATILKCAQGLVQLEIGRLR
A further assay addresses T6, PDZRN3_1, Q9UPQ7.
T6 sequence (Q9UPQ7 244-349, limits assumed, looked up): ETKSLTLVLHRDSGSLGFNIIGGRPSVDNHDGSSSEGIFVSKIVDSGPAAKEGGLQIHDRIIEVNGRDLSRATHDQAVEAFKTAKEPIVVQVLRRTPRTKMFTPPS

A further assay addresses T7, LNX2_3, Q8N448.
T7 sequence (Q8N448 463-564, limits assumed, looked up): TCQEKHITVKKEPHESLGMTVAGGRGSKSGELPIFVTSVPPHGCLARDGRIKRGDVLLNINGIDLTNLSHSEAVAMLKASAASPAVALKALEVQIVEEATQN
Particulars: plain residues with an end cap or a label only (N-terminal biotin on a linker: ttds).

A further assay addresses Inadl_5, Q8NI35. Particulars: plain residues with an end cap or a label only (N-terminal biotin on a linker: ttds).
Another assay concerns the target GRIP2_3, Q9C0E4. Particulars: plain residues with an end cap or a label only (N-terminal biotin on a linker: ttds).
The next assay has as its target HTRA1, Q92743. Particulars: plain residues with an end cap or a label only (N-terminal biotin on a linker: ttds).
In another assay the target is T8, LNX2_2, Q8N448.
T8 sequence (Q8N448 334-432, limits assumed, looked up): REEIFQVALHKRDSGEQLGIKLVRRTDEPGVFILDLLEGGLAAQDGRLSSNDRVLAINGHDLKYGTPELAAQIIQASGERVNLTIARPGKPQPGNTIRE

For another assay, the target named is T9, LIN7C, Q9NUP9.
T9 sequence (Q9NUP9 88-185, limits assumed, looked up): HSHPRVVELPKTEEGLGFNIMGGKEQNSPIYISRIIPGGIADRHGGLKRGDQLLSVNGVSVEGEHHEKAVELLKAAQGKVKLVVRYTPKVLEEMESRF

Another assay has as its target T10, SNTA1, Q13424.
T10 sequence (Q13424 82-180, limits assumed, looked up): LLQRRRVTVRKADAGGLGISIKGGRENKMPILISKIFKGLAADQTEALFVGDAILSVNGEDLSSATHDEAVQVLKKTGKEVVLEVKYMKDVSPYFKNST
Particulars: plain residues with an end cap or a label only (N-terminal biotin on a linker: ttds).

Where [1] appears, read: plain residues with an end cap or a label only (N-terminal biotin on a linker: ttds).
[2] abbreviates: plain residues with an end cap or a label only (N-terminal biotin on a linker: ado-ado).

The term pKd denotes the negative decadic logarithm of the Kd, by convention in mol/L.

Sequence of HTRA1, Q92743 (Q92743 360-477): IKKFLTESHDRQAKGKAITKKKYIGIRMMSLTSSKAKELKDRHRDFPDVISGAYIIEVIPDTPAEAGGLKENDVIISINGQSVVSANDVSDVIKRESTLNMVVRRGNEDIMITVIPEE
Sequence of TJP1_2, Q07157 (Q07157 181-274): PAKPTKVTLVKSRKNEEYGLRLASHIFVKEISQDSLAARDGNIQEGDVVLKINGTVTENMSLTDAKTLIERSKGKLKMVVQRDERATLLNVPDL
Sequence of GRIP2_5, Q9C0E4 (Q9C0E4 544-642): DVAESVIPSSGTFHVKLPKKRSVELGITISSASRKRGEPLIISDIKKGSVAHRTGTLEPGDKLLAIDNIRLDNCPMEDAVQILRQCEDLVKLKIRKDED
Sequence of ARHGEF12, Q9NZN5-2 (Q9NZN5 other isoform, or with tags, fused parts or gaps): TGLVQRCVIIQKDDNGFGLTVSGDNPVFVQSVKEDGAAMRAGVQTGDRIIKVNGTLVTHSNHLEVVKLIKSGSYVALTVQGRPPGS
Sequence of DLG5_1, Q8TDM6 (Q8TDM6 617-713): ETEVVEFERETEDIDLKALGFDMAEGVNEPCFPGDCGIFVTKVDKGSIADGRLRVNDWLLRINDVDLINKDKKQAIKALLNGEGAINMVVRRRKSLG
Sequence of FRMPD2_3, Q68DX3 (Q68DX3 1073-1166): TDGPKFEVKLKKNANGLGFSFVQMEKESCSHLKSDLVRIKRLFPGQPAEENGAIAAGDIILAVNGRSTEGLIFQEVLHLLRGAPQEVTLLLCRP
Sequence of DLG4_2, P78352 (P78352 155-259): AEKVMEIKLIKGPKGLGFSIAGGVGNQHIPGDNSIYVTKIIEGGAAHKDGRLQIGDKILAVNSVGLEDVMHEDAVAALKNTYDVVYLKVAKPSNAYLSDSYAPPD
Sequence of GORASP1, Q9BQQ3 (Q9BQQ3 1-208): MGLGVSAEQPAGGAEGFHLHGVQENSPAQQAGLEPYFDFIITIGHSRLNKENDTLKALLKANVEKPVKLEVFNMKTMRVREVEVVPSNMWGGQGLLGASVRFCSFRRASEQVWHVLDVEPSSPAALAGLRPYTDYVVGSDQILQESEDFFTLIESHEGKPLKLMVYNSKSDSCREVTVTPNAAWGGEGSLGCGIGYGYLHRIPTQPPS
Sequence of LNX1_1, Q8TBB1 (Q8TBB1 261-371): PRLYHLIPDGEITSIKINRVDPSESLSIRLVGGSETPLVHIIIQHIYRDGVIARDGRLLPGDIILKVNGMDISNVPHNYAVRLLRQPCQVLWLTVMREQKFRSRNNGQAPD
Sequence of Inadl_5, Q8NI35 (Q8NI35 673-780): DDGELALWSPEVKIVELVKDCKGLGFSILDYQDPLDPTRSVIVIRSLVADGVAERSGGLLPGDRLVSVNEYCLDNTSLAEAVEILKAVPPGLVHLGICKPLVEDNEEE
Sequence of TJP2_1, Q9UDY2 (Q9UDY2 24-128): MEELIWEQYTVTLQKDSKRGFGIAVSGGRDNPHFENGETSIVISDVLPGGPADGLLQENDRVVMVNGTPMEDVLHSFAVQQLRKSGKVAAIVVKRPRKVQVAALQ
Sequence of GIPC2, Q8TF65 (Q8TF65 112-203): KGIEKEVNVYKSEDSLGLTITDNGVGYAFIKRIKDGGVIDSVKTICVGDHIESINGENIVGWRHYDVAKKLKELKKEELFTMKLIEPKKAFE
Sequence of DLG1_3, Q12959 (Q12959 457-571): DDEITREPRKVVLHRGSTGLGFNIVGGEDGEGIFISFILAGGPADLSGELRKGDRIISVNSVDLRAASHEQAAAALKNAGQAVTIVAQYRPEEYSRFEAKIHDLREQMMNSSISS
Sequence of MAGI2_6, Q86UL8 (Q86UL8 1141-1229): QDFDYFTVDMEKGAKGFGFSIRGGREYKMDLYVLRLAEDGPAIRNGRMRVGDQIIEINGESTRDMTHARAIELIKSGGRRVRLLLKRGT
Sequence of GRIP2_3, Q9C0E4 (Q9C0E4 238-339): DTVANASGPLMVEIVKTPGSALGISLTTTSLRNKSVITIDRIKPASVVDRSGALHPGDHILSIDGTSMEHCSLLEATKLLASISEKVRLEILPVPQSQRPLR

Take SRPQRTQTQV [HPV67-E6, A4U7F2]: the pKd is 4.96 in the assay with DLG4_2, P78352 (setting [1]); “below the threshold” in the assay with FRMPD2_3, Q68DX3; 4.13 with DLG1_3, Q12959 (setting [1]); “below the threshold” in the assay with SNTB1, Q13884 (setting [1]); “below the threshold” in the assay with GRIP1_4, Q9Y3R0 (setting [1]); “below the threshold” in the assay with GORASP1, Q9BQQ3. Further, the negative-log Kd (pKd) in the assay with ARHGEF12, Q9NZN5-2 (setting [1]) was 4; in the assay with GRIP2_7, Q9C0E4, “below the threshold”; with MPP6, Q9NZW5, “below the threshold”; with TJP2_1, Q9UDY2 (setting [1]), 3.86; in the assay with MAGI2_6, Q86UL8 it was “below the threshold”; with NHERF3_4, Q5T2W1 (setting [1]), “below the threshold”. In addition, the pKd result with DLG5_1, Q8TDM6 (setting [1]) is “below the threshold”; with TJP1_2, Q07157 (setting [1]), “below the threshold”; with GRIP2_5, Q9C0E4 (setting [1]) it was “below the threshold”; in the assay with APBA2_2, Q99767, “below the threshold”; with Inadl_9, Q8NI35, “below the threshold”; with PDZRN3_1, Q9UPQ7 (setting [1]) it was 3.76. Also, the pKd entry is “below the threshold” with LNX2_3, Q8N448; “below the threshold” in the assay with GIPC2, Q8TF65 (setting [1]); “below the threshold” in the assay with Inadl_5, Q8NI35; “below the threshold” with LNX1_1, Q8TBB1 (setting [1]); “below the threshold” in the assay with GRIP2_3, Q9C0E4; “below the threshold” in the assay with HTRA1, Q92743. Moreover, the pKd was 3.6 with LNX2_2, Q8N448 (setting [1]); “below the threshold” with LIN7C, Q9NUP9 (setting [1]); 3.94 with SNTA1, Q13424.

For the molecule KRPEMTSSSV [MUC3B, MUC3A, Q02505;Q9H195], the negative-log Kd (pKd) result with GRIP1_4, Q9Y3R0 (setting [2]) is “below the threshold”; with ARHGEF12, Q9NZN5-2 (setting [2]), 4; in the assay with NHERF3_4, Q5T2W1 (setting [2]), “below the threshold”; in the assay with DLG5_1, Q8TDM6 (setting [2]) it was “below the threshold”; in the assay with TJP1_2, Q07157 (setting [2]) it was “below the threshold”; with PDZRN3_1, Q9UPQ7 (setting [2]) it was “below the threshold”. Moreover, the pKd result was “below the threshold” with LNX2_2, Q8N448 (setting [2]) and “below the threshold” in the assay with LIN7C, Q9NUP9 (setting [2]).

Take SVWLRKETRV [CYSLTR2, Q9NS75]: the pKd is 5.38 with DLG4_2, P78352 (setting [1]); 3.57 with FRMPD2_3, Q68DX3; 5.57 with DLG1_3, Q12959 (setting [1]); 5.5 in the assay with SNTB1, Q13884 (setting [1]); “below the threshold” with GRIP1_4, Q9Y3R0 (setting [1]); 3.7 with GORASP1, Q9BQQ3. Also, the pKd is 4.23 in the assay with ARHGEF12, Q9NZN5-2 (setting [1]); “below the threshold” in the assay with GRIP2_7, Q9C0E4; “below the threshold” in the assay with MPP6, Q9NZW5; 4.45 in the assay with TJP2_1, Q9UDY2 (setting [1]); 3.51 in the assay with MAGI2_6, Q86UL8; 3.48 with NHERF3_4, Q5T2W1 (setting [1]). Moreover, the pKd entry is “below the threshold” with DLG5_1, Q8TDM6 (setting [1]); “below the threshold” in the assay with TJP1_2, Q07157 (setting [1]); “below the threshold” in the assay with GRIP2_5, Q9C0E4 (setting [1]); “below the threshold” with APBA2_2, Q99767; 3.39 with Inadl_9, Q8NI35; 5.1 with PDZRN3_1, Q9UPQ7 (setting [1]). The pKd result was “below the threshold” with LNX2_3, Q8N448; “below the threshold” in the assay with GIPC2, Q8TF65 (setting [1]); 3.62 with Inadl_5, Q8NI35; 3.59 with LNX1_1, Q8TBB1 (setting [1]); “below the threshold” with GRIP2_3, Q9C0E4; “below the threshold” with HTRA1, Q92743. Further, the pKd with LNX2_2, Q8N448 (setting [1]) was determined as 3.77; with LIN7C, Q9NUP9 (setting [1]) it was 5.03; with SNTA1, Q13424, 5.41.

As for KSRVAFFEEL [NF2, P35240], the pKd with DLG4_2, P78352 (setting [2]) was 3.78; with DLG1_3, Q12959 (setting [2]), 3.82; in the assay with SNTB1, Q13884 (setting [2]) it was 3.54; with TJP2_1, Q9UDY2 (setting [2]), 3.63; with NHERF3_4, Q5T2W1 (setting [2]) it was 3.59; with TJP1_2, Q07157 (setting [2]), 3.51. Moreover, the pKd with GRIP2_5, Q9C0E4 (setting [2]) stood at 3.54; with PDZRN3_1, Q9UPQ7 (setting [2]), 3.54; with GIPC2, Q8TF65 (setting [2]), 3.48; with LNX1_1, Q8TBB1 (setting [2]) it was 3.73.

As to RSLEEEESQL [GRASP, Q7Z6J2], the negative logarithm of the Kd (pKd) stood at 3.84 in the assay with DLG4_2, P78352 (setting [1]); 4.08 in the assay with FRMPD2_3, Q68DX3; 4.36 in the assay with DLG1_3, Q12959 (setting [1]); 3.89 with SNTB1, Q13884 (setting [1]); 3.5 in the assay with GRIP1_4, Q9Y3R0 (setting [1]); 3.72 with GORASP1, Q9BQQ3. The pKd was 3.56 with ARHGEF12, Q9NZN5-2 (setting [1]); “below the threshold” with GRIP2_7, Q9C0E4; 3.53 in the assay with MPP6, Q9NZW5; 3.65 in the assay with TJP2_1, Q9UDY2 (setting [1]); “below the threshold” in the assay with MAGI2_6, Q86UL8; “below the threshold” in the assay with NHERF3_4, Q5T2W1 (setting [1]). Further, the negative-log Kd (pKd) result was “below the threshold” in the assay with DLG5_1, Q8TDM6 (setting [1]); “below the threshold” with TJP1_2, Q07157 (setting [1]); “below the threshold” in the assay with GRIP2_5, Q9C0E4 (setting [1]); “below the threshold” in the assay with APBA2_2, Q99767; “below the threshold” with Inadl_9, Q8NI35; 4.24 with PDZRN3_1, Q9UPQ7 (setting [1]). Also, the pKd entry was “below the threshold” in the assay with LNX2_3, Q8N448; 4.17 in the assay with GIPC2, Q8TF65 (setting [1]); “below the threshold” with Inadl_5, Q8NI35; “below the threshold” with LNX1_1, Q8TBB1 (setting [1]); “below the threshold” with GRIP2_3, Q9C0E4; 4.33 with HTRA1, Q92743. For the same molecule, the pKd result was “below the threshold” in the assay with LNX2_2, Q8N448 (setting [1]); 3.78 in the assay with LIN7C, Q9NUP9 (setting [1]); “below the threshold” with SNTA1, Q13424.

Values taken from publication PMC9482650, “Quantitative fragmentomics allow affinity mapping of interactomes” (Nature Communications, 2022).
